B1: M-phase phosphoprotein 8 (Homo sapiens), Q99549 (parent)
chain: MEQVAEGARVTAVPVSAADSTEELAEVEEGVGVVGEDNDAAARGAEAFGDSEEDGEDVFEVEKILDMKTEGGKVLYKVRWKGYTSDDDTWEPEIHLEDCKEVLLEFRKKIAENKAKAVRKDIQRLSLNNDIFEANSDSDQQSETKEDTSPKKKKKKLRQREEKSPDDLKKKKAKAGKLKDKSKPDLESSLESLVFDLRTKKRISEAKEELKESKKPKKDEVKETKELKKVKKGEIRDLKTKTREDPKENRKTKKEKFVESQVESESSVLNDSPFPEDDSEGLHSDSREEKQNTKSARERAGQDMGLEHGFEKPLDSAMSAEEDTDVRGRRKKKTPRKAEDTRENRKLENKNAFLEKKTVPKKQRNQDRSKSAAELEKLMPVSAQTPKGRRLSGEERGLWSTDSAEEDKETKRNESKEKYQKRHDSDKEEKGRKEPKGLKTLKEIRNAFDLFKLTPEEKNDVSENNRKREEIPLDFKTIDDHKTKENKQSLKERRNTRDETDTWAYIAAEGDQEVLDSVCQADENSDGRQQILSLGMDLQLEWMKLEDFQKHLDGKDENFAATDAIPSNVLRDAVKNGDYITVKVALNSNEEYNLDQEDSSGMTLVMLAAAGGQDDLLRLLITKGAKVNGRQKNGTTALIHAAEKNFLTTVAILLEAGAFVNVQQSNGETALMKACKRGNSDIVRLVIECGADCNILSKHQNSALHFAKQSNNVLVYDLLKNHLETLSRVAEETIKDYFEARLALLEPVFPIACHRLCEGPDFSTDFNYKPPQNIPEGSGILLFIFHANFLGKEVIARLCGPCSVQAVVLNDKFQLPVFLDSHFVYSFSPVAGPNKLFIRLTEAPSAKVKLLIGAYRVQLQ

Variants of: B1
Conditions: with h31_human H3C1, P68431

Variant | effect of a mutation on the interaction
W80A | disrupting interaction

Source: IntAct's records for PubMed 20871592
